A short description of this data set: yeast display, Sf9 membrane polyspecificity reagent, FACS + sequencing; frameworks hold sequencing errors. The method, boiled down: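 A nanobody's polyreactivity label depends on the gate it was sorted from. Yeast display cells were stained with 10% biotinylated, detergent-solubilized Sf9 membrane reagent for 1 hour at 4 °C, enriched on streptavidin microbeads and sorted by FACS. The low and high (top ~1%) gates were set on anti-HA fluorescence for expression and streptavidin fluorescence for reagent binding.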
Take “QVQLVESGGGLVQAGGSLRLSCAASGFIFGYYAMGWYRQAPGKEREFVAAISARSGRTYYADSVKGRFTISRDNAKNTVYLQMNSLKPEDTAVYYCNTAYAYSGRYDYWGQGTQVTVSS”: the “polyreactivity (PSR sort gate)” value is on record as “high polyreactivity”.
In the case of “QVQLVESGGGLVQAGGSLRLSCAASGLTFKVYDMGWYRKAPGKERELVAAIWSDGDTYYADSVKGRFTISRDNAKNTVYLQMNSLKPEDTGVYYCAAVPGCTVHFVYGNKYDYWGQGTQVTVSS”, the “polyreactivity (PSR sort gate)” value is reported as “low polyreactivity”.
Then “QVQLVESGGGLVQAGGSLRLSCAASGFILYGNTMGWYRHAPGKDRELVAAISWSGGNTRYADSVKGRFTISRDNAKNTVYLQMNSLKQDDTAVYYCAAYSKYVLSIRRDYWGQGTQVTVSS”, with “low polyreactivity”.
For “QVQLVESGGGLVQAGGSLRLSCAASGSTFFGYAMGWYRQAPGKERELVAAIRYNGGHTYYADSVKGRFTISRDYAKNTVYLQMNRLKPEDTAVYYCAVDVVTSYYELTGSFNYWGQGTQVTVSS”, the “polyreactivity (PSR sort gate)” value is on record as “low polyreactivity”.
As for “QVQLVESGGGLVQAGGSLRLSCAASGFTFTTYAMGWYRQAPRQVRELVAAITRRGGSTYYADSVKGRFTISRDNEKNTVYLQMNSLKPEDTAVYYCAAGGGWGLDFWGQGTQVTVSS”, the “polyreactivity (PSR sort gate)” value is given as “high polyreactivity”.
Consider “QVQLVESGGGLVQAGGSLPLSCAASGRTFDANAMGWSRQAPGKERELVAAISSDGSTNYADSVKGRFTISRDNAKNTVYLQMNSLKPEDTAVYYCATDGKPLIRYDYDYWGQGTQVTVSW”, for which the “polyreactivity (PSR sort gate)” value was “high polyreactivity”.
Next, “QVQLVESAGGLVQAGGSLRLSCAASGYIFSYNAMGGYRQAPGKERELVAAITASGGGTYYADSVKGRFTISRDNAKNTVYLHMNSLKQEDTAVYYCAADLSWSRVVFGDYDYWGQGTQVTVSS”: “low polyreactivity”.
Then “QVQIVESGGGLVQAGGSLRLRCAASGSISGRNGMGWYRQAPGKERELVAAISTSGASTYYADSVKGRFTISRDNSKNTVYLQMNSLKTEDTAGYYCARLWGRRGYGYWGQGTQVTVSS”, with “high polyreactivity”; and “QVQLVESGGGLVQAGGSLRFSCAASGSTFVYNAMGWYRQAAGQERELVAVITYRGGRTYYADSVKGRFTISRDNAKNTVYLQINSLKPEDTAVYYCAAQTFRYRKKLDYWGQGTQVTVSS”, with “high polyreactivity”; and “QVQLVESGGGLVQAGGSLPLRCAASGITFYGYTMGWYRQAPGKERELVAAITSVGSTYYADSVKGRFTISRDNAKNTVYLQMNSLKPEDTAVYYCNARPKFRTYNYWGQGTQVTVSS”, with “high polyreactivity”.
Take “QVQLVESGGGLVQAGGSLRLSCAASGRIYFYNALGWYRQAPGKERELVATITRSGGRTYYADSVKGRFTISRDNAKNTVYLQMNSLKPEDTAVYYCAAYPTNNLYPNLEYWGQGTQVTVSS”: the “polyreactivity (PSR sort gate)” value is reported as “high polyreactivity”.
“QVQLVASGGGLVQAGGSLRLSCAATGSIFYFYAMGWYRPAPWKERELVAAITDCGASTRYADSVKGRFTISRDNAKNTVYLQMNSLKPEDTAVYYCAAVRYHISYREYYWGQGTQVTESS”: the “polyreactivity (PSR sort gate)” value is recorded as “high polyreactivity”.
Next, “QVQLVESGGGLVQAGGSLRLSCAASGSTFTSYAMGWYRQAPGKERELVASIRSTSGRTYYADSVKGRFTISRDNAKNTVYLQMNSLKPEDTAVYYCAAATYGTWWTYADNPYDYWGQGTQVTVSS”: “high polyreactivity”; “QVQLEESGGGLVQAGGSLRLSCAASGSTFTAYAMGWYREAPGKEMELVAAINWSGGTTYYADSVKGRFTISRDNAKNTVYLQMNSLKPEDTAVYYCAVDGNFFGEVRPYDYWGQGTQVTVSS”: “low polyreactivity”.
In the case of “QVQLVESGGGLVQAGGSLRLSCAASGFIFYDYAMGWYRQAPGKERELVAAISKRGGSTYYADSVKGRFTISRDNAKNTVYLQMNSLKPEDTAVYYCAATSYRRTGYNYWGQGTQVTVSS”, the “polyreactivity (PSR sort gate)” value is listed as “high polyreactivity”.
Next, “QVQLVESGGGLVQAGGSLRLSCAASGITFYPNDMGWYRQAPGKERELVAAITTNDGDTYYADSVKGRFTISRDKAKNTVYLQMNSLKPEDTAVYYCAAASGSTSEYEYWGQGTQVTVSS”: “low polyreactivity”.
As for “QVQLVESGGGIVQAGGSLRLSCAASGFILDYNAMGWYRQAPGKERELVATITGRGDRTYYADSVKGRFTISRDNAKNTVYLQMNSLKPEDTAVYDCAAGFDGSRHPGFDSWGQGTQVTVSS”, the “polyreactivity (PSR sort gate)” value is given as “low polyreactivity”.
In the case of “QVQLVESGGGLVQAGRSLRLSCAASGLTFKWYAMGWYRQAPGKERELVAAISRDGSTYYADSVKGRFTISRDNAKNTVYLQMNSLKPEDTAVYDCAADIWPSSLLADEYDYWGQGTQVTVSS”, the “polyreactivity (PSR sort gate)” value is reported as “high polyreactivity”.
In the case of “QVQLVESGGGFVQAGGSLRLSCAASGYIFEWNAMGWYRQAPGKERELVASIDSDGSTYYADSVKGRFTISRDNAKNTVYLQMNSLKPEDTAVYYCNARGYTGGEVLAEYDYWGQGTQVTVSS”, the “polyreactivity (PSR sort gate)” value is reported as “low polyreactivity”.
On to “QLQLVESGGGLVQAGGSLRLSCAASGSTFGPYTMGWYRQAPGKERELVATISSGGSTYYADSVKGRFTISRDNAKNTVYLQMNSLKPEDTAVYYCAARYWSIYDYWGQGTQVTVSS”, for which the “polyreactivity (PSR sort gate)” value was “low polyreactivity”.
Take “QVKLVESGGGLVHAGGSLRLICAASGFTFGEYAMVWSRQSPGKERELVAGISWSGGGTYYADSVKGRFTISRDNAKYTVYLQMNSLKPEDTAVYYCAAVLPSTSYKYDYWGQGTQVTVSS”: the “polyreactivity (PSR sort gate)” value is given as “low polyreactivity”.
As to “QVQLVESGGGLVQAGGSLRLSCAASGSIFSRNAMGWYRQAPGKVRELVAAITGSGSSTYYADSVKGRFTISRDNAKNTVYLQMNSLKPEDTAVYYCAKGSWWGYYSYGFDYWGQGTQVTVSS”, the “polyreactivity (PSR sort gate)” value is “high polyreactivity”.
Then “QVQLVESGGGLVQAGGSLRLSCAASGRTFNYYAMGWYRQAPGKERELVAAISSRGGTYYADSVKGRFTISRDNAKNTVYLQMNSLKPEDTAVYYCNAVHYDTISDYWGQGTQVTVSS”, with “high polyreactivity”; and “QVQLVESGGGLVQAGGSLRLSCAASGSTFVNNAMGWYRQAPGTERELVAAIRSSDGRTYYADSVKGRFTISRDNAKNTVYLQMNSLKPEDTAVYYCATAVGTKYRTRIFEYYYWGQGTQVTVSS”, with “high polyreactivity”.
Turning to “QVQLVESAGGLVQEGGSLRLICAASGSIFGGYAMGWYRQAPGKERELVAAISWSSSTTYYADSVKGRFTISRDHAMNTVYLQLNSLKPEDTAVYDCATGIYPQTSDYDYWGQGTQVTVSS”, the “polyreactivity (PSR sort gate)” value is recorded as “low polyreactivity”.
On to “QVQLVESGGGLVHAGGRLRLSFAASGSIFAVYAMGWYRQAPGKEREFVARIAWGGGRTYYADSVKGRFTISRDNAQNTVYLQMNSLKPEDTAVYYCNAERAGTYRYDYWGQGPQVTVSS”, for which the “polyreactivity (PSR sort gate)” value is on record as “high polyreactivity”.
Next, “QVQLVESGGGLVQEGGSLRLSCDASGLILLPYARGWYRQAPGKERELVAAISCSGGSTYYADSVKGRFTISRDNAKNTVYLQMNSLKPEVTAVYYCPARPNRQGFYYWGQGTQVTVSS”: “high polyreactivity”; “QVQLVESGGGLVQAGGSLRLSCAASGRTFHGNAKGWYRTAPGKERELVAAISYSGGRTYYADSVKARFTISRDNAKNTVYLQMNSLKPEDTAVYYCAAWGSSYSFDYWGQGTQVTVSS”: “high polyreactivity”.
Then “QVQLVESGGGLVQAGGSLRLSCAASGYTYGTYDMRWYRQAPGKERELVAAFSIGGSTNYADSVKGRFTISRDNAKNTVYLQMNSLKPEDTAVYYCAAEVNVGTLLLSVIVEDGDYWGQGTQVTVSS”, with “low polyreactivity”; and “QVQLVESGGGLVQAGGSLRLSCAPSGSTFDPFAMGWYRQAPGKERELVADITSSDGSTYYADSVKGRFTISRDNAKNTVYFQMNSLKPEVTAVYYCYSDYRYFWTYWGWSIYDYWGQGTQVTVSS”, with “high polyreactivity”; and “QVQLVESGGGLVQAGGSLPLSCAASGRIYGSYAMGWYRQAPGKERELVADISRRGGGTYYADSVKGRFTISRDNAKNTVYLQMNSLKPEDTAFYYCAKDWYGRYYYWGQGTQVTVSS”, with “high polyreactivity”.
With “QVQLVESGGCLVQAGGSLRLSCAASGLIFYGYAMGWYRQAPGKERELVAAITSGGSTNYADSVKGRFTISRDNAKNTVYLQMNSLKPEDTSFYYCNADVIYYYRAYPVYEYDYWGQGTQVTVSS”, the “polyreactivity (PSR sort gate)” value is reported as “low polyreactivity”.
For “QVQLVESGGGLVQAGGSLRLSCAASGRIFSSYAMGWYRQAPGKEREFVASITWRGGSTYYADSVKGRFTISRDNAKNTVYLQMNSLKPEDTAVYYCAADFYWKTYGYRTHEYDYWGQGTQVTVSS”, the “polyreactivity (PSR sort gate)” value is recorded as “high polyreactivity”.
For the sequence “QVQLVESGGGLVQAGGSLRLSCAASGRNFGRYAMGWYRQAPGKEMELVAAISGSGGTTYYADSVKGRFTISRDNAKNTVYLQMNSLKPEDTAVYYCAARYWVGKVWKYDYWGQGTQVTVSS”, the “polyreactivity (PSR sort gate)” value is listed as “high polyreactivity”.
Turning to “QVQIVESGGGLVQAGGSLRLSCAAYGSIFQPYAMGWYRQAPGKERELVAAITNGGSTYYADSVKGRFTISRDNAKNTVYLQMNSLKPEDTGVYYCAADVQSSHEYDYWGKGTQVTVSS”, the “polyreactivity (PSR sort gate)” value is “low polyreactivity”.
Regarding “QVQLVESGGGLFQAGGSLRLSCAASGSTFKFNAMGWYRQAPGKEWELVAAISNRGGTTYYADSVKGRFTISRDNAKNTVYLLMNSLKQEDTAVYYCAAGRVQYYYFWGQGTQVTVSS”, the “polyreactivity (PSR sort gate)” value is recorded as “high polyreactivity”.
As to “QVQLQESGGGLVQAGGSLRLSCAASGSIFLFYTMGCYRPAPVKEREFVAGITLGTTTYNADSVKGRFTISRDNVKNTVYLQMNSLNPVDSAVYYCAVAVGHYTEFWYWGQGTQVTMSS”, the “polyreactivity (PSR sort gate)” value is listed as “high polyreactivity”.
Next, “QVQLVESRGGLVQAGGSLRLSCAASGRTFGRYAMGWYRQAPGKERELVAAINRGGSTKYADSVKGRFTISRDNAKNTVYLQMNSLKPEDTAVYYCAKDRHPALHYDYWGQGTQVTVSS”: “low polyreactivity”.
As for “QVQLEESGGGLFQAGGSLRLSCAASGSTFVSNAMGWYRQAPGKDRELVAAISSSGGRTSYADSVKGRFTISRDNAKNTVYLQMNSLKPEDTAVYYCNRVSPGPDADLEFDYWGQGTQVTVSS”, the “polyreactivity (PSR sort gate)” value is “low polyreactivity”.
Then “QVQLVEAGGGLVQAGGSLRLSCAPSGFICYYYGMGWYRQAPGKDREVVASIRSGGSTNYADSVKGRFTISRDNAKNTGYLQMNWLKPEDTAVYNCAASLLNRISNYDYWGQGTQVTVKS”, with “high polyreactivity”.
Take “QGQRVESGGGLVQAGGSLRLSCAASGFIFAHNAMGWYRPAPGTETEFVAAISANTGNTYYADSVKGRFTISRDNAKNTVYLQMNSLKPEDTAVYYCRSFYYWGQGTQVTVSS”: the “polyreactivity (PSR sort gate)” value is “high polyreactivity”.

Values taken from the nanobody polyreactivity screen of Harvey et al. (2022).
